For orientation: stoichiometry N means a count of units in the complex or per binding partner.

From article doi:10.1101/172809 (bioRxiv, 2017) come the findings set out here.

Positions count from the first letter of the chain named. Names and notes keep the numbering of the source.

The labels stand for the following.
B1: Dynamin-Related Protein 1 (DRP1), wild type, full length, isoform 2 (enzyme, human, UniProt O00429-3 1-710, looked up)
chain: MEALIPVINKLQDVFNTVGADIIQLPQIVVVGTQSSGKSSVLESLVGRDLLPRGTGIVTRRPLILQLVHVSQEDKRKTTGEENGVEAEEWGKFLHTKNKLYTDFDEIRQEIENETERISGNNKGVSPEPIHLKIFSPNVVNLTLVDLPGMTKVPVGDQPKDIELQIRELILRFISNPNSIILAVTAANTDMATSEALKISREVDPDGRRTLAVITKLDLMDAGTDAMDVLMGRVIPVKLGIIGVVNRSQLDINNKKSVTDSIRDEYAFLQKKYPSLANRNGTKYLARTLNRLLMHHIRDCLPELKTRINVLAAQYQSLLNSYGEPVDDKSATLLQLITKFATEYCNTIEGTAKYIETSELCGGARICYIFHETFGRTLESVDPLGGLNTIDILTAIRNATGPRPALFVPEVSFELLVKRQIKRLEEPSLRCVELVHEEMQRIIQHCSNYSTQELLRFPKLHDAIVEVVTCLLRKRLPVTNEMVHNLVAIELAYINTKHPDFADACGLMNNNIEEQRRNRLARELPSAVSRDKLIQDSRRETKNVASGGGGVGDGVQEPTTGNWRGMLKTSKAEELLAEEKSKPIPIMPASPQKGHAVNLLDVPVPVARKLSAREQRDCEVIERLIKSYFLIVRKNIQDSVPKAVMHFLVNHVKDTLQSELVGQLYKSSLLDDLLTESEDMAQRRKEAADMLKALQGASQIIAEIRETHLW
B2: DRP1_(G362D), full length, disease-associated mutant (enzyme, human, UniProt O00429-3 1-710, looked up)
chain: B1 chain with G362D
B3: Mitochondrial Dynamics 49, MID49_(126-454) (domain or fragment, human, UniProt Q96C03-1 126-454, looked up)
chain: TLQERLLAFERDRVTIPAAQVALAKQLAGDIALELQAYFRSKFPELPFGAFVPGGPLYDGLQAGAADHVRLLVPLVLEPGLWSLVPGVDTVARDPRCWAVRRTQLEFCPRGSSPWDRFLVGGYLSSRVLLELLRKALAASVNWPAIGSLLGCLIRPSMASEELLLEVQHERLELTVAVLVAVPGVDADDRLLLAWPLEGLAGNLWLQDLYPVEAARLRALDDHDAGTRRRLLLLLCAVCRGCSALGQLGRGHLTQVVLRLGEDNVDWTEEALGERFLQALELLIGSLEQASLPCHFNPSVNLFSSLREEEIDDIGYALYSGLQEPEGLL

The series “cryo-EM structure” concerns the molecule itself. Put plainly: cryo-EM structure.
The series “SEC” concerns the molecule itself. Put plainly: SEC. Background: Size exclusion chromatography separates by hydrodynamic size, large species first.
Series [1] deals with B1. Put plainly: cryo-EM structure.

Regarding B1, in the series “cryo-EM structure”, the binding result is reported as “binds”.

In the case of B2, the “stoichiometry N” value in “SEC” worked out at 2.

As for B3, the binding result in series [1] is “binds”.
